We go through one molecule from paper PMC11638003, “Plant phytochrome interactions decode light and temperature signals” (The Plant Cell, 2024).

No end group written: not given here.

Holding throughout (conditions): both partners purified
The target in assay [1] is T1, Arabidopsis thaliana phytochrome B, N-terminal fragment encompassing the N-terminal extension (NTE) and the … (Arabidopsis thaliana, UniProt P14713 1-651, phycocyanobilin chromophore, covalently bound).
T1 construct: Phytochrome B, Arabidopsis thaliana, GenBank CAA35222.1; N-terminal fragment with the NTE and the PCM (nPAS-GAF-PHY), lacking PAS1, PAS2 and the HKRD; source: E. coli LOBSTR, purified (Co2+-NTA IMAC, anion exchange); plasmid also encodes Synechocystis sp. heme oxygenase 1 and PcyA
T1 sequence (looked up): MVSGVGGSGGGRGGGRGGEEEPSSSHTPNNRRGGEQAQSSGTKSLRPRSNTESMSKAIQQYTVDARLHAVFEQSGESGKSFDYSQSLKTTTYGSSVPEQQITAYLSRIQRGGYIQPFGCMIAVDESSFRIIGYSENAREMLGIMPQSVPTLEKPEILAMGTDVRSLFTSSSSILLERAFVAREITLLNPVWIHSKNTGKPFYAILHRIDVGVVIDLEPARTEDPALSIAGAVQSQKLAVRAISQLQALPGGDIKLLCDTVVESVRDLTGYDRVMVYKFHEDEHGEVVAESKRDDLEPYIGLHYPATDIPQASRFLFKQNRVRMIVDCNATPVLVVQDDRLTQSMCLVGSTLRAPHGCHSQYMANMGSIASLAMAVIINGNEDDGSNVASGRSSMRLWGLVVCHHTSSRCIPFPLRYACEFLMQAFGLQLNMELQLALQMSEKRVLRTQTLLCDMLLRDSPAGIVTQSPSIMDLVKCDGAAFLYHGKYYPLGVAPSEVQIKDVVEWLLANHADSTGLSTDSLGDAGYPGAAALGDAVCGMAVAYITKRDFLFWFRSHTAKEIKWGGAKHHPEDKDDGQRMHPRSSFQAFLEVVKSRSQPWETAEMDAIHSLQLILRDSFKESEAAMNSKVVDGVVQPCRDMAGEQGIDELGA
The experiment in a line: FRET or BRET; as a5 (association and dissociation kinetics after a red-light pulse) at several temperatures up to 30 °C; values told for 30 °C or for 30 °C against 15 °C.

Assay [2] addresses T1, Arabidopsis thaliana phytochrome B, …. The experiment in a line: FRET or BRET; equilibrium titration: 20 nM P6A-mScarlet-I with 0 to 2,000 nM AtPhyB PCM at 15 °C after red light (658 nm); 50 mM Tris/HCl pH 8.0, 20 mM NaCl, 100 μg/mL BSA; single-site binding isotherm.
The target in assay [3] is T2, Arabidopsis thaliana phytochrome B residues 1 to 982, AtPhyB (1-982) (Arabidopsis thaliana, UniProt P14713 1-982, phycocyanobilin chromophore, covalently bound).
T2 construct: the oligomeric state is not measured directly here; also called AtPhyB982; source: E. coli LOBSTR, purified (Co2+-NTA IMAC, anion exchange); plasmid also encodes Synechocystis sp. heme oxygenase 1 and PcyA
T2 sequence (looked up): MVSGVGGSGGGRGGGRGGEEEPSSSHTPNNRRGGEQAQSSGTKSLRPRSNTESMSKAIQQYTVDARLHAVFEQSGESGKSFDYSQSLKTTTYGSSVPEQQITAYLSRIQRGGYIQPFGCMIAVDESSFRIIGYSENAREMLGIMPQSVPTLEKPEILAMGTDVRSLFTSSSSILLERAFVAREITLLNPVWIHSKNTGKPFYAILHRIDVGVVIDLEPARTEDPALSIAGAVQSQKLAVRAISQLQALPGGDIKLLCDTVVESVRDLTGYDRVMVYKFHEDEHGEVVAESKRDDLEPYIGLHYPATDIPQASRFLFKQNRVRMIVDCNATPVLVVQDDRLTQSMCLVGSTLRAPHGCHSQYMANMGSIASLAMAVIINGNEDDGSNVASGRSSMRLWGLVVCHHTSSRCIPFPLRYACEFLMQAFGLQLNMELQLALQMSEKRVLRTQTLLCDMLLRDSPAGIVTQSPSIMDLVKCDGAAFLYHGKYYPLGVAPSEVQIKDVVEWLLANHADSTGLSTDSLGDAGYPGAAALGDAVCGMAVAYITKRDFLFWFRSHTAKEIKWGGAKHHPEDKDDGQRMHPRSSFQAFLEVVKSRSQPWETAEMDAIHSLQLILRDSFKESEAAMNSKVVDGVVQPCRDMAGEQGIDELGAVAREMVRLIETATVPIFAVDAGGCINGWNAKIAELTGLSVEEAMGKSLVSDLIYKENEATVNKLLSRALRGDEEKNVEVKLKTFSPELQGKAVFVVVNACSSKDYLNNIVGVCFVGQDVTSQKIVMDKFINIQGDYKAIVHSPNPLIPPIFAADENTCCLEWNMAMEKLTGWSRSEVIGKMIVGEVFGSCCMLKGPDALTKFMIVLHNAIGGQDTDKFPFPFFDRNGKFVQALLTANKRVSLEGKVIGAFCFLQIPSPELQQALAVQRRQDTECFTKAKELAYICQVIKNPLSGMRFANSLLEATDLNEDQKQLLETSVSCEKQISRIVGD
The experiment in a line: FRET or BRET; association kinetics at 15 °C after a 0.5-s pulse of red light (658 nm, 69 mW cm^-2, optical shutter); 20 nM PIF-mScarlet-I variant with 500 to 2,000 nM AtPhyB PCM, or 30 nM P6A-mScarlet-I with 750 to 2,500 nM AtPhyB (1-982); 50 mM Tris/HCl pH 8.0, 20 mM NaCl; pseudo-first-order, linear fit of koFR against the AtPhyB concentration; kaFR corrected for the Pfr fraction; Kd calculated from kdFR and kaFR ….

In assay [4] the target is T2, Arabidopsis thaliana phytochrome B …. Described as above. The source holds these as a separate data set.
The target in assay [5] is T1, Arabidopsis thaliana phytochrome B, …. The description is as above.

B1: P6A-mScarlet-I (Arabidopsis PIF6 residues 14 to 53, APB.A portion, fused to mScarlet-I) (domain or fragment, Arabidopsis thaliana, UniProt Q8L5W7 14-53, looked up)
chain: DQEYMELVFENGQILAKGQRSNVSLHNQRTKSIMDLYEAE-{mScarlet‑I}
notes: mScarlet-I: GenBank APD76536; source: E. coli LOBSTR, purified (IMAC, SENP2 cleavage, second IMAC, optionally anion exchange); not shown: His6-SUMO, N-terminal, cleaved; mScarlet-I, C-terminal, kept
On to B1, for which the Kd in assay [1] was about 900 nM; in assay [2] it was 130 ± 80 nM; in assay [3], 1050 ± 240 nM; in assay [4] it was 1400 nM; in assay [5], 183 ± 48 nM. Further, the koff in assay [3] was 0.095 s⁻¹; in assay [5] it was 0.11 s⁻¹. Further, the association rate constant (kon) is 90000 M⁻¹ s⁻¹ in assay [3] and 610000 M⁻¹ s⁻¹ in assay [5].
